From patent US20220135701A1 (Genentech, published 2022) come the findings set out here.

The target of assay [1] is T1, mouse MerTK on mouse macrophages (mouse, UniProt Q60805 19-994).
T1 sequence (looked up): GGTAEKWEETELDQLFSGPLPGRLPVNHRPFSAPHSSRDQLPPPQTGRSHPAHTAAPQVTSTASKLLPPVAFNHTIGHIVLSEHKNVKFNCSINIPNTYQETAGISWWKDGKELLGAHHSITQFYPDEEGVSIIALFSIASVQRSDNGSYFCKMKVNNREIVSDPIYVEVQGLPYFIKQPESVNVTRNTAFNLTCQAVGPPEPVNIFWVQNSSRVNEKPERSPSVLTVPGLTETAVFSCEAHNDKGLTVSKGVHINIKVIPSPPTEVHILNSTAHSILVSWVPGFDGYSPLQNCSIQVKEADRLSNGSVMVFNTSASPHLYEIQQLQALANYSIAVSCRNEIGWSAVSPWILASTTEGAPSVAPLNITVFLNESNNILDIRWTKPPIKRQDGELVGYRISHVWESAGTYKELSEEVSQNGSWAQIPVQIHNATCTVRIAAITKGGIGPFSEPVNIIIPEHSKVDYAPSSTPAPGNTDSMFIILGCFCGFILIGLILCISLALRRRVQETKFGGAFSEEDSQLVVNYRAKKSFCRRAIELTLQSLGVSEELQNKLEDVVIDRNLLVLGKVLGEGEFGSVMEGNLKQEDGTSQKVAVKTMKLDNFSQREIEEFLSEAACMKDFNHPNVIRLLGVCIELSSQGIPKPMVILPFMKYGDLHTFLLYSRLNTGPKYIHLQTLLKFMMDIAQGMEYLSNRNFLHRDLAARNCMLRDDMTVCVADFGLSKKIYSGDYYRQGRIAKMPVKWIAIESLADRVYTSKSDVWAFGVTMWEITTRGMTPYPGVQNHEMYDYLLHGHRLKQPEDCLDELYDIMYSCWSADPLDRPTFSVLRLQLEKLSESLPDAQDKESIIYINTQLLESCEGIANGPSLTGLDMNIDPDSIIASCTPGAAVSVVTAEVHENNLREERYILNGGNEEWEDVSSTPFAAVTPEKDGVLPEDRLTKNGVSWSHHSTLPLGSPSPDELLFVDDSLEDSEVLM
The assay is described as follows: cell-based or functional assay.

Assay [2] addresses T1, mouse MerTK on mouse macrophages. The assay is described as follows: cell-based or functional assay. This is another data set of the same source.
The target in the next assay is T2, MuMER (E23-S496) (mouse, UniProt Q60805 23-496).
T2 construct: range 23-496; also called mouse MerTK extracellular domain
T2 sequence (looked up): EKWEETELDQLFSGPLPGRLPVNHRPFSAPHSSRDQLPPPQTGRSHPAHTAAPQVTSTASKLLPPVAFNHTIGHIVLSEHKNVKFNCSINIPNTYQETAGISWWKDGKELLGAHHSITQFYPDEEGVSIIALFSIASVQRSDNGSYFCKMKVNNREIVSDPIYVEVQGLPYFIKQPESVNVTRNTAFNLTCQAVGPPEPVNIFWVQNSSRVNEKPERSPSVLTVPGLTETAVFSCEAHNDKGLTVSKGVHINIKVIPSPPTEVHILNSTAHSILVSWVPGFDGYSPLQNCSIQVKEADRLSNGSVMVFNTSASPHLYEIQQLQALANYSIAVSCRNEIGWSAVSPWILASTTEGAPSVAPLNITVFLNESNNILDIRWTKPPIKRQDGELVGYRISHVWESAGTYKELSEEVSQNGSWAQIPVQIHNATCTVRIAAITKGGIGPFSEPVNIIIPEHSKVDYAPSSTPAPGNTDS
The assay is described as follows: SPR BIAcore T200, Ab captured, 25C. The gist of the method: (§1)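 Rabbit antibody captured to ~100 RU; MerTK domain injected as 3-fold dilutions (0.4–100 nM) in HBS-EP pH 7.4 at 25 °C, 30 μl/min. kon and koff from 1:1 Langmuir fit; KD = koff/kon.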
On the technique in general: SPR reads the build-up and loss of mass on a sensor chip optically.

The next assay addresses T3, MuMER.Ig1&2 (A70-P279) (mouse, UniProt Q60805 70-279).
T3 construct: range 70-279; also called mouse MerTK Ig-like 1&2 domains
T3 sequence (looked up): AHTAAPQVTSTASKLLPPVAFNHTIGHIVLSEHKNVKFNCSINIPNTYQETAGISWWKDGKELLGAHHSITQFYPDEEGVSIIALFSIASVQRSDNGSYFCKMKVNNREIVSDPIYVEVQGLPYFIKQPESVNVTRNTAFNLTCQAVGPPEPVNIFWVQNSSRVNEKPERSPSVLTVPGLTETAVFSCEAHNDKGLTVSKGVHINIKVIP
The assay is described as follows: SPR BIAcore T200, Ab captured, 25C. The gist of the method: as §1

A further assay deals with T4, MuMER.Ig1 (A70-G190) (mouse, UniProt Q60805 70-190).
T4 construct: range 70-190; also called mouse MerTK Ig-like 1 domain
T4 sequence (looked up): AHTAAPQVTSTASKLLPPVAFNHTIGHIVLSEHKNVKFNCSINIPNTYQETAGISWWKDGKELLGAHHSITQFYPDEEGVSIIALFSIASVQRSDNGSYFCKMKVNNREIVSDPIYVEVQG
The assay is described as follows: SPR BIAcore T200, Ab captured, 25C. The gist of the method:
as §1

The next assay concerns the target T5, mouse MerTK (mouse, UniProt Q60805 23-496).
T5 construct: also called MuMER
T5 sequence (looked up): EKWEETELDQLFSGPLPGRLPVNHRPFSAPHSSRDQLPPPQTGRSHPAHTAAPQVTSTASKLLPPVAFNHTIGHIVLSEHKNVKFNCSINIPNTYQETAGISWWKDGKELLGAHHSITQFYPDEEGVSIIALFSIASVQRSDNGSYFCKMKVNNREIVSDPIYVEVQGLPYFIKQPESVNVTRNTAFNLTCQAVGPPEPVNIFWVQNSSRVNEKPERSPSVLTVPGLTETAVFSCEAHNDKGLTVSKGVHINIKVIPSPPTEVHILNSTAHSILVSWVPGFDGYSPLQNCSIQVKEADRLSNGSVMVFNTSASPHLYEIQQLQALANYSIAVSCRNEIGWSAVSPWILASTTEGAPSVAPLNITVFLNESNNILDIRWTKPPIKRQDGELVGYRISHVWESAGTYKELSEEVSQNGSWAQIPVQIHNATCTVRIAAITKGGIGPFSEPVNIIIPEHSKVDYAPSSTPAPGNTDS
The assay is described as follows: SPR BIAcore T200, Ab captured, 25C. The gist of the method:
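Rabbit or humanized antibody captured to ~100 RU; MerTK injected as 3-fold dilutions from 0.4 nM to 100 nM in HBS-EP (HEPES pH 7.4) at 30 μl/min, at 25° C. or 37° C. kon and koff fitted to a 1:1 Langmuir model; KD = koff/kon.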

B1: anti-MerTK 14C9 (mIgG2a LALAPG) (antibody, V domains shown)
VH: QSVEESGGRLVTPGTPLTLTCTVSGIDLSANTMNWVRQAPGKGLEWIGIFTATGSTYYATWVNGRFTISKTSTTVDLKITSPTTEDTATYFCARSGSGSSSGAFNIWGPGTLVTVSL
VL: DPVLTQTPASVSEPVGGTVTIKCQASQSISSSLAWYQQKPGQPPKLLIYAASILASEISSRFKGSRSGTEFTLTISDLECADAATYYCQCTSYGSLFLGPFGGGTEVVVK
B1: in assay [1], the “fold decrease in phagocytic clearance of apoptotic thymocytes by peritoneal macrophages, against control anti-gp120” value is around 8 fold and the “fold potency in inhibiting mouse macrophage phagocytosis, against h10F7.v16” value turned out to be 4.8 fold. Moreover, in assay [2], the “IC50 (nM), efferocytosis by mouse macrophages, Average” value was found to be 0.19 nM.

B2: Rbt14C9 (antibody, V domains shown)
VH: QSVEESGGRLVTPGTPLTLTCTVSGIDLSANTMNWVRQAPGKGLEWIGIFTATGSTYYATWVNGRFTISKTSTTVDLKITSPTTEDTATYFCARSGSGSSSGAFNIWGPGTLVTVSL
VL: DPVLTQTPASVSEPVGGTVTIKCQASQSISSSLAWYQQKPGQPPKLLIYAASILASEISSRFKGSRSGTEFTLTISDLECADAATYYCQCTSYGSLFLGPFGGGTEVVVK
notes: Recombinant rabbit monoclonal antibody, Expi293, protein A purified
With B2, the Kd with MuMER (E23-S496) was 600 pM; with MuMER.Ig1&2 (A70-P279) it was 500 pM; with MuMER.Ig1 (A70-G190) it was 100 pM; in the assay with mouse MerTK, 600 pM.

Usually Kd stands for the free concentration of one partner at which half of the binding sites on the other are occupied at equilibrium, for simple one-to-one binding. High values mean lower affinity, low ones higher affinity.
